Assay [1] concerns the target T1, Notch (UniProt P07207 53-2703, limits assumed).
T1 construct: whole, on cells
Description: confocal immunofluorescence of cells incubated with Wg conditioned medium, anti-Wg antiserum and cy3 secondary antibody.

Assay [2] concerns the target Drosophila frizzled 2 (Dfz2) (Drosophila), Q9VVX3. Description: confocal immunofluorescence, Dfz2-transfected S2 cells incubated with Wg conditioned medium, anti-Wg antiserum.
Assay [3] shares this target. Description: confocal immunofluorescence, human 293 cells transiently transfected with Dfz2, pretreated with chlorate and heparatinase.

Chain of Drosophila frizzled 2 (Dfz2) (Drosophila), Q9VVX3 (Q9VVX3 other isoform, or with tags, fused parts or gaps limits assumed): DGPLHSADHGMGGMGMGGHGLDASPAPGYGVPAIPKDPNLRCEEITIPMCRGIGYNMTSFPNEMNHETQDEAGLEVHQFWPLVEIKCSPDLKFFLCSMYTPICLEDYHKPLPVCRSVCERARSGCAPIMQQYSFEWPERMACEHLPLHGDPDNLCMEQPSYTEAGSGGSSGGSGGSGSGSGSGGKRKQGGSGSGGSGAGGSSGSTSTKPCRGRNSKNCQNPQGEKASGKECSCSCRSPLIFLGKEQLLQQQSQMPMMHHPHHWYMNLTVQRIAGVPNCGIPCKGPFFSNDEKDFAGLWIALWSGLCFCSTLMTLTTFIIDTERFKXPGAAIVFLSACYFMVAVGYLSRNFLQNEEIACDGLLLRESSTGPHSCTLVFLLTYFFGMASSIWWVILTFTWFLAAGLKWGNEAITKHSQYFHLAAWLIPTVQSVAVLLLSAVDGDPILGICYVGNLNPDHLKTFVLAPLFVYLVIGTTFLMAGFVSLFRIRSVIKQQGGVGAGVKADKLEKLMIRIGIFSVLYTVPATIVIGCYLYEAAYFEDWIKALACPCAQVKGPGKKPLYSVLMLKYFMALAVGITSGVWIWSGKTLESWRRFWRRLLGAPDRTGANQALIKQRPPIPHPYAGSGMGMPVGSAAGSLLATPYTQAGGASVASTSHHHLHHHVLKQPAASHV
T1 sequence (P07207 53-2703 limits assumed): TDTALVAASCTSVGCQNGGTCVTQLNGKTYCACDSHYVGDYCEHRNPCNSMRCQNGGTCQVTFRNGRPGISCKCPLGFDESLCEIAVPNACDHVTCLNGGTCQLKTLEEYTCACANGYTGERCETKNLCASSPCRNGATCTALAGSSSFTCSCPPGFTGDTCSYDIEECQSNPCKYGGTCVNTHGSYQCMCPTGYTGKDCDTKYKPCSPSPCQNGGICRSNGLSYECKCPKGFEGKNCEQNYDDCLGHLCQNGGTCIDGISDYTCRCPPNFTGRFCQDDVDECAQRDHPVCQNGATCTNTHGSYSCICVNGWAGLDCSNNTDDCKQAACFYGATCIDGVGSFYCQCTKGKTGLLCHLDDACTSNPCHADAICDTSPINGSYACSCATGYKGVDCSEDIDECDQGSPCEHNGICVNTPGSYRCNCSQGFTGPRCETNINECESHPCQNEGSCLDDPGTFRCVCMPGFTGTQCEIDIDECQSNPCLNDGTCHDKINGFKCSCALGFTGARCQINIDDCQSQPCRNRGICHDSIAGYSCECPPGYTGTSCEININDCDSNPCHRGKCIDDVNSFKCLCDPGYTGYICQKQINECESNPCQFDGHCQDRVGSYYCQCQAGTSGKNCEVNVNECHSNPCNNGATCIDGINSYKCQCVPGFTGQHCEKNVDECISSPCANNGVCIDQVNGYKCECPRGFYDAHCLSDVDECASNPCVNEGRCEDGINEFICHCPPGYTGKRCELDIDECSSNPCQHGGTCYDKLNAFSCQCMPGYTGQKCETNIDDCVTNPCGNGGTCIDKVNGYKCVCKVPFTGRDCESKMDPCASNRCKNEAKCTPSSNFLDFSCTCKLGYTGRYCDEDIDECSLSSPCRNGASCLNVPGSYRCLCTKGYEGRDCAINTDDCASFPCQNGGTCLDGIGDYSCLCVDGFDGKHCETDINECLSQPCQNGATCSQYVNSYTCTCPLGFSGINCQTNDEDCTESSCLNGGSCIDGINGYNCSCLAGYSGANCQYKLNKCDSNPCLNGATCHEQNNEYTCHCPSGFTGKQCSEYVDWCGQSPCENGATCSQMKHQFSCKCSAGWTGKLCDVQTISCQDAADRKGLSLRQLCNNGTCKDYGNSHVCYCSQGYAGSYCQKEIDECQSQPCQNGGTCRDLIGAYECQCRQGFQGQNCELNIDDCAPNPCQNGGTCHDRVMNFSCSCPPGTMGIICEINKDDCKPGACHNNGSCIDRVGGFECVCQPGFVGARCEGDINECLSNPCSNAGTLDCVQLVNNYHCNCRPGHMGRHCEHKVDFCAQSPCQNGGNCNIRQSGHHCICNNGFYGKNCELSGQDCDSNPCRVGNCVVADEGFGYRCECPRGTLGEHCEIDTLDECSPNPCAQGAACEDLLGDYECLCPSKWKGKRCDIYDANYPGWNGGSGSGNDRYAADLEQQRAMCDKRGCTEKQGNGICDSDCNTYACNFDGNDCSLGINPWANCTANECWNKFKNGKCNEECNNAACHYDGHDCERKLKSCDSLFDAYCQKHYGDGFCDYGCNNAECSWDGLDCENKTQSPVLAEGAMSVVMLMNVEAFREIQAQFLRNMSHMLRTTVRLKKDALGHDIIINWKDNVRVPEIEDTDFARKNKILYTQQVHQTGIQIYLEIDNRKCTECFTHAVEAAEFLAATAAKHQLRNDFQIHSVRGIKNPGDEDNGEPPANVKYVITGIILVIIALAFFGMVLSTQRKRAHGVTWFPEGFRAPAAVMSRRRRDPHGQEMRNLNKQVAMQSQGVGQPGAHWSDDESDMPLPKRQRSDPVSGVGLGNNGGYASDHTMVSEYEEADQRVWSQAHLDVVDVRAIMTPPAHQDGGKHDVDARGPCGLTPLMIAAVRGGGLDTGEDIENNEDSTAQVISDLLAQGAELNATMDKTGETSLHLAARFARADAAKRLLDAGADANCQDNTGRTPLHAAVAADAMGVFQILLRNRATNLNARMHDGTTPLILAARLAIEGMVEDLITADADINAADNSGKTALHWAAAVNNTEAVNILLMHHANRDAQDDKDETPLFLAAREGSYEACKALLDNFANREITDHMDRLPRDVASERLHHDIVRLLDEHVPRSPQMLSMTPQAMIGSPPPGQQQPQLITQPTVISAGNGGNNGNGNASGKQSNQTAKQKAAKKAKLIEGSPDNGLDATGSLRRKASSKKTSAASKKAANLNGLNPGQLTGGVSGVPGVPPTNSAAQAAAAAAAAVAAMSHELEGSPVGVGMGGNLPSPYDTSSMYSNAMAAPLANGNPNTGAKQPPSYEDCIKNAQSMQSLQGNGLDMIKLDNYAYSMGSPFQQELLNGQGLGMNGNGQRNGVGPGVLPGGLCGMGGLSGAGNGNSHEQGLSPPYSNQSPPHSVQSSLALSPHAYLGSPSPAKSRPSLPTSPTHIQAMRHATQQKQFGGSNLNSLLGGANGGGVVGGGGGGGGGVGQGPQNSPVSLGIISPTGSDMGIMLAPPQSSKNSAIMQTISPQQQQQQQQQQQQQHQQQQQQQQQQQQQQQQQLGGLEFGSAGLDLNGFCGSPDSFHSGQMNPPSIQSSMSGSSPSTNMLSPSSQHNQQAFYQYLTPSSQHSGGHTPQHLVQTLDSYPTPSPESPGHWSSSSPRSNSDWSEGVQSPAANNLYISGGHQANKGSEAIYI

B1: wingless (Wg) protein (ligand, Drosophila, UniProt P09615 18-468, looked up)
chain: GSSLSQVEGKQKSGRGRGSMWWGIAKVGEPNNITPIMYMDPAIHSTLRRKQRRLVRDNPGVLGALVKGANLAISECQHQFRNRRWNCSTRNFSRGKNLFGKIVDRGCRETSFIYAITSAAVTHSIARACSEGTIESCTCDYSHQSRSPQANHQAGSVAGVRDWEWGGCSDNIGFGFKFSREFVDTGERGRNLREKMNLHNNEAGRAHVQAEMRQECKCHGMSGSCTVKTCWMRLANFRVIGDNLKARFDGATRVQVTNSLRATNALAPVSPNAAGSNSVGSNGLIIPQSGLVYGEEEERMLNDHMPDILLENSHPISKIHHPNMPSPNSLPQAGQRGGRNGRRQGRKHNRYHFQLNPHNPEHKPPGSKDLVYLEPSPSFCEKNLRQGILGTHGRQCNETSLGVDGCGLMCCGRGYRRDEVVVVERCACTFHWCCEVKCKLCRTKKVIYTCL
notes: mature; Used as concentrated conditioned medium, not purified; It was detected as bands of about 52 kD, 'the size of the mature Wg protein'; also called soluble Wg protein; metabolically labeled Wg protein
Take B1: the binding result in assay [1] is recorded as “no binding”. In addition, the percent of cells stained in assay [2] was 80%. Besides, the percent of transfected cells positive in assay [3] lay within 10 to 20%.

The values above are taken from patent US20070269808A1 (published 2007).
